According to US20230310621A1, “COMPLEXES FOR THE DELIVERY OF PROTEINACEOUS AGENTS” (priority 2020, published 2023):

Key:
[1] = Ultrafiltration of PAEC; particle recovery by light scattering, free SDS by HPLC-ELSD; assay type: physicochemical; settings: filtrate fraction of ultrafiltration
Experimental: The fraction of SDS under a free form, i.e. not associated to the PAECs, was determined on the following composition: P24/CpG/SDS/DA002: 200/80/200/350 μg/mL. This analysis was done after separation of the PAECs from free SDS, using ultrafiltration. The free SDS concentration in the permeate fraction was then determined by HPLC using an AZorbax 80A Extend-C18 column. 3.0×150 mm, 3.5 μm from Agilent and an Evaporative Light Scattering Detector (ELSD) Alltech® Model 3300.
Particle recovery has been estimated from the mean light scattering of the permeate fraction of ultrafiltration. The particle recovery percentage was measured as the mean and SD of light scattering count rate of 3 measurements; the SDS recovery percentage was measured as mean and SD of 2 HPLC analysis.

[2] = Circular dichroism, % helix in human insulin on storage at 4° C.; assay type: physicochemical
Experimental: From these CD spectra we have calculated the % of helix in human insulin overtime of storage at 4° C. on 12-day period. […] The CD spectra were taken […].
The CD analysis was carried out after storing the PAEC for 1, 6 or 12 days at 4° C.

CCCCCCCCCCCCOS(=O)(=O)[O-].[Na+] [Free SDS, sodium dodecyl sulphate]
SDS recovery (wt %) ([1]; 2 HPLC analysis): 100.0 wt %
Particle recovery (Id %) ([1]; mean and SD of 3 measurements): 0.78 ± 0.07 Id %

Human Insulin: free human insulin, small globular protein, Mw 5808 Da
percentage helix content in human insulin, Day 1 ([2]; stored 1 day at 4° C.): 14.6%
percentage helix content in human insulin, Day 6 ([2]; stored 6 days at 4° C.): 37.4%
percentage helix content in human insulin, Day 12 ([2]; stored 12 days at 4° C.): 36.9%
